What was measured:
Experiment in all cases: Kinase Profiling Assay
Format in all cases: biochemical
Settings in all cases: 100 μM peptide
VRK2(h) = VRK2(h) (Homo sapiens, UniProt Q86Y07)
Method: (§1) Every kinase activity measurement was conducted in duplicate.
(§2) In addition to determining the IC50 of the compound, the specificity of MK2 inhibitory peptides was assessed by examining activities of all 266 human kinases available for testing in the Millipore kinase profiling service (Table 1).

FAK(h) = FAK(h) (Homo sapiens, UniProt Q05397)
Chain of FAK(h) (Q05397 whole entry): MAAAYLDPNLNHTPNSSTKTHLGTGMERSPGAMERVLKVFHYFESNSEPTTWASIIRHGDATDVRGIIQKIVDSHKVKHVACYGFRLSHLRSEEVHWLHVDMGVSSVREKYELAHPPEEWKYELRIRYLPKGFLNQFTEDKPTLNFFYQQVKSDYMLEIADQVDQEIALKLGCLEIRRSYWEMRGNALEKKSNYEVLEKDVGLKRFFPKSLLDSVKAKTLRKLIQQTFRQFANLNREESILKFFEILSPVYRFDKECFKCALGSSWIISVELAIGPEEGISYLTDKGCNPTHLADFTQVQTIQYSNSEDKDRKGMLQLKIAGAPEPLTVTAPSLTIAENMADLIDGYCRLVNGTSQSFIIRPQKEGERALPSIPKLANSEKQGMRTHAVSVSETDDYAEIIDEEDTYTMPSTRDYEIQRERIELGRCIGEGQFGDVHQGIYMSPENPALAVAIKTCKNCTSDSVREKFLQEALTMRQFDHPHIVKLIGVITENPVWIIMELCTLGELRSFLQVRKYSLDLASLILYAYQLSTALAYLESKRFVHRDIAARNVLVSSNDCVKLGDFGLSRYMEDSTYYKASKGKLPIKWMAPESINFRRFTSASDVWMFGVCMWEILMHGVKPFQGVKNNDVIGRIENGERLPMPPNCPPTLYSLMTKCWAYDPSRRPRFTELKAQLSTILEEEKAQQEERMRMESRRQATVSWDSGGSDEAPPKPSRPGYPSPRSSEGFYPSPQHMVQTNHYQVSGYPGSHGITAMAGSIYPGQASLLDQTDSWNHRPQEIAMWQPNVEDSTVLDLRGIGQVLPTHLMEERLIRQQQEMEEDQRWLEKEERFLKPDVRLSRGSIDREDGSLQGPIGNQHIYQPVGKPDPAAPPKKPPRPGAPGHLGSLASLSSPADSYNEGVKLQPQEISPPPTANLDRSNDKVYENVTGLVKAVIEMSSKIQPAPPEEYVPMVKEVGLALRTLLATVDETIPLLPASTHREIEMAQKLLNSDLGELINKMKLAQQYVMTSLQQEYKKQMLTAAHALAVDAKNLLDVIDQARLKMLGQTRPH
Method: as §1, §2

Met(h) = Met(h) (Homo sapiens, UniProt P08581)
Chain of Met(h) (P08581 25-1390): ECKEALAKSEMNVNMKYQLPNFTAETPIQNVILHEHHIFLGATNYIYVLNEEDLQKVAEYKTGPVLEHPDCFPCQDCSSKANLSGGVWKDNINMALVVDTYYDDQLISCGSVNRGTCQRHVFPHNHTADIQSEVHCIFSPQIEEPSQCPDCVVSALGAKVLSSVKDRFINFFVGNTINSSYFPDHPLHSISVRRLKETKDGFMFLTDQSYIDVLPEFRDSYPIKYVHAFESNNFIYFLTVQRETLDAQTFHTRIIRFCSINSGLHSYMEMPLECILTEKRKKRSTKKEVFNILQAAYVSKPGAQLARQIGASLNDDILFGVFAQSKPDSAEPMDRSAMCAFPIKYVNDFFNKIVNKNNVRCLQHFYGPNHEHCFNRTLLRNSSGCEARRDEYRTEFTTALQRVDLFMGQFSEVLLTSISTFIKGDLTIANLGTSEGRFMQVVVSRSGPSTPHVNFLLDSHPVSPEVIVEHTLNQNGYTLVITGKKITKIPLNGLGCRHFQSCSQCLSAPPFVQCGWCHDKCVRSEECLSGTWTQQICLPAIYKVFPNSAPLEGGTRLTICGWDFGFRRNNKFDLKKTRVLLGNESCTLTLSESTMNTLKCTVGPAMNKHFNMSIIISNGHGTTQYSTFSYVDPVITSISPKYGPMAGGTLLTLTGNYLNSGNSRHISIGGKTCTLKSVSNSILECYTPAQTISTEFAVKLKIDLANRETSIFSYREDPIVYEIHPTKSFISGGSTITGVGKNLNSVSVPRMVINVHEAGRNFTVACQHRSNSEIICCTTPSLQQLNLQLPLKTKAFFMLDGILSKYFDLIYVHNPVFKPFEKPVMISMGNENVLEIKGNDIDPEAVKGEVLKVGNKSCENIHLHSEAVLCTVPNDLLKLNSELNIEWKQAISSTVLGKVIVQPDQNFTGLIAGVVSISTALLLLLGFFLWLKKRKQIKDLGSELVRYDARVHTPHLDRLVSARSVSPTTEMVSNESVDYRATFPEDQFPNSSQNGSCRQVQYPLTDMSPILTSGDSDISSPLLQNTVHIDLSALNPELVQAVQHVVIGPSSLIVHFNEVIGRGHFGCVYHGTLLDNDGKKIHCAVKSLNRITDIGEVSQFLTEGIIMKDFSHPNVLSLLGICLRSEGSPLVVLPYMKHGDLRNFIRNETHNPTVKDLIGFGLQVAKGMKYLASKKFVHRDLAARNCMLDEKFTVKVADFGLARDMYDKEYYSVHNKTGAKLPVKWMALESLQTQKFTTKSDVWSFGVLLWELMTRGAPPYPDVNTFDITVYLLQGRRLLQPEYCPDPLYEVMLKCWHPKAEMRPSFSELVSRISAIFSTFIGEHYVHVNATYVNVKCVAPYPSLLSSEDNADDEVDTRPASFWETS
Method: as §1, §2

F1t3(h) = F1t3(h) (Homo sapiens, UniProt P36888)
Method: as §1, §2

BrSK1(h) = biological target: T1, BrSK1(h) (Homo sapiens, UniProt Q8TDC3)
T1 sequence (Q8TDC3 1-778): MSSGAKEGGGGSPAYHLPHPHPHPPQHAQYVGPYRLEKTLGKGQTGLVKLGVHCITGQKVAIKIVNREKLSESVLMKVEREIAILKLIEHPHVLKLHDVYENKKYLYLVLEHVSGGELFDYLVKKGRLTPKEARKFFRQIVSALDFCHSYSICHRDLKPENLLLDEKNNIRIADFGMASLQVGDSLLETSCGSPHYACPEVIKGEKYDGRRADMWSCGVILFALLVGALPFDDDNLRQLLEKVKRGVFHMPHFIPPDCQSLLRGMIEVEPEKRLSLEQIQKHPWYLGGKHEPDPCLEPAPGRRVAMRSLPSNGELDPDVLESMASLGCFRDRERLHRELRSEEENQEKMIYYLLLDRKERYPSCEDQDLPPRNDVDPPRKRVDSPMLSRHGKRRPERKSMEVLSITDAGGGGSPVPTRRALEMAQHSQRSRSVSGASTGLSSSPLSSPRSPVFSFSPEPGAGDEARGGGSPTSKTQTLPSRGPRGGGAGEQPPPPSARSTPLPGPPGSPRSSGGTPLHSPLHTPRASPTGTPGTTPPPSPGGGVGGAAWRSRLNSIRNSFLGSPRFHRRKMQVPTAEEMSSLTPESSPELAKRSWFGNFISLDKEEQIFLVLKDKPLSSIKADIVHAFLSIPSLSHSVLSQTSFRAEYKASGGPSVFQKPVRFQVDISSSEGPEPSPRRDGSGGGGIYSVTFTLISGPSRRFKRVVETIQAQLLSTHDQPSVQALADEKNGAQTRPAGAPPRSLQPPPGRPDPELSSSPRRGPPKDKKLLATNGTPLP
Method: as §1, §2

CDK2/cyclinE(h) = CDK2/cyclinE(h) (Homo sapiens, UniProt P24941)
Method: as §1, §2

Ron(h) = biological target: T2, Ron(h) (Homo sapiens, UniProt Q04912)
T2 construct: purchased Millipore (IC50 Profiler Express service)
Method: as §1, §2

PKCδ(h) = PKCδ(h) (Homo sapiens, UniProt Q05655)
Chain of PKCδ(h) (Q05655 whole entry): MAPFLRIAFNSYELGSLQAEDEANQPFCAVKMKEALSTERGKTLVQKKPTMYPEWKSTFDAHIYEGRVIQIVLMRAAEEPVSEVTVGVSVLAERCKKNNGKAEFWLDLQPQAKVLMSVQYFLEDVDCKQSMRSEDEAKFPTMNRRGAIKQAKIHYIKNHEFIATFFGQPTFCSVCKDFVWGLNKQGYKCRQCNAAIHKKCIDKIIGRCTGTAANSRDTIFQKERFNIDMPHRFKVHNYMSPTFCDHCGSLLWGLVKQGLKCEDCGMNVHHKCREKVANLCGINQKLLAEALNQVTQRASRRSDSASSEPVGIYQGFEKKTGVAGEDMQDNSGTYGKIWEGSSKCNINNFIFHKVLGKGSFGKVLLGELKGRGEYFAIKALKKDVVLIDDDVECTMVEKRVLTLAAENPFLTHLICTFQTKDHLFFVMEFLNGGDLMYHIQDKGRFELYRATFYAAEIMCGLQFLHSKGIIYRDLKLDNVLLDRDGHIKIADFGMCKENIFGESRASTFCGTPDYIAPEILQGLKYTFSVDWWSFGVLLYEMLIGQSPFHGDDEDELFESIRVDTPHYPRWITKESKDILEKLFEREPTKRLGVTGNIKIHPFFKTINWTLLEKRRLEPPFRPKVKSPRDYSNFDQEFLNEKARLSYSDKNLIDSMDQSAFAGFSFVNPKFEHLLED
Method: as §1, §2

EphB4(h) = biological target: T3, EphB4(h) (Homo sapiens, UniProt P54760)
T3 sequence (P54760 16-987): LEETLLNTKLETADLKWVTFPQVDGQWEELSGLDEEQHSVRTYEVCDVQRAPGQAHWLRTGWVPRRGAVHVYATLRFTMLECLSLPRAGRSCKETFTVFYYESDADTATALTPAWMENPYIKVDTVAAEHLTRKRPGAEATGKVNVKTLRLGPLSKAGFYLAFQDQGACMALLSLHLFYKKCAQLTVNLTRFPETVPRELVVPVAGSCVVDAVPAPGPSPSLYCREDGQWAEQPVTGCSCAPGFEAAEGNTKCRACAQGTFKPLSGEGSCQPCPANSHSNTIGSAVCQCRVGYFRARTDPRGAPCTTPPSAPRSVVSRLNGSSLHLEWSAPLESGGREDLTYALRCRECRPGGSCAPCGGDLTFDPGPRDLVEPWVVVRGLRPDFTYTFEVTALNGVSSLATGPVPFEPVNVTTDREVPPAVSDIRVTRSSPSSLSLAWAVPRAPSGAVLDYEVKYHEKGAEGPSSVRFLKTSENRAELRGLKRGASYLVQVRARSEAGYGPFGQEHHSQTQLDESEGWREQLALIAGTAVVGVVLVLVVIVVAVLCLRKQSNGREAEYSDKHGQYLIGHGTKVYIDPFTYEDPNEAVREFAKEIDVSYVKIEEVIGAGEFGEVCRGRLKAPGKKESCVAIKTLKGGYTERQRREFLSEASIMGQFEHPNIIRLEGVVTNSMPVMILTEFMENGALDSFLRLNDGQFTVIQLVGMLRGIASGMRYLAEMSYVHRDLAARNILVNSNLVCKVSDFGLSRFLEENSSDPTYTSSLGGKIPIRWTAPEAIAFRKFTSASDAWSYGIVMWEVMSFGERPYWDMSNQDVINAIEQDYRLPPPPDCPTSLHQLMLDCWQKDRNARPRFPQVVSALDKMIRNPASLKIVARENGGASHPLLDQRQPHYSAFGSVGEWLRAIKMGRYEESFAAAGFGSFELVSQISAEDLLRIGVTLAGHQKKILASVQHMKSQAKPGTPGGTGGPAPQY
Method: as §1, §2

p70S6K(h) = p70S6K(h) (Homo sapiens, UniProt P23443)
Chain of p70S6K(h) (P23443 whole entry): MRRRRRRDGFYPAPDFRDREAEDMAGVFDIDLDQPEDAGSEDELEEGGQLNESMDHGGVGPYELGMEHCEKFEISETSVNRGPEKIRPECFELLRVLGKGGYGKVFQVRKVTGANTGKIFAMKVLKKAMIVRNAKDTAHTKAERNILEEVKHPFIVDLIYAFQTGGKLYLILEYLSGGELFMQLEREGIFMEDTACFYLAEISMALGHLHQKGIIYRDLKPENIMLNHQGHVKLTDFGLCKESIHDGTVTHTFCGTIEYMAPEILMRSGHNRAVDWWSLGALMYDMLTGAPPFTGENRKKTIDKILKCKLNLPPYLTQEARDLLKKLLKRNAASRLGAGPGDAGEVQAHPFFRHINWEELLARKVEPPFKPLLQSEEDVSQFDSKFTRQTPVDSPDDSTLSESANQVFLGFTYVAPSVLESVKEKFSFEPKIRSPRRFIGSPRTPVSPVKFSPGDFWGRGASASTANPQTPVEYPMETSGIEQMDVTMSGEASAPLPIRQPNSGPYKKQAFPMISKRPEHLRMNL
Method: as §1, §2

MSK1(h) = MSK1(h) (Homo sapiens, UniProt O75582)
Chain of MSK1(h) (O75582 whole entry): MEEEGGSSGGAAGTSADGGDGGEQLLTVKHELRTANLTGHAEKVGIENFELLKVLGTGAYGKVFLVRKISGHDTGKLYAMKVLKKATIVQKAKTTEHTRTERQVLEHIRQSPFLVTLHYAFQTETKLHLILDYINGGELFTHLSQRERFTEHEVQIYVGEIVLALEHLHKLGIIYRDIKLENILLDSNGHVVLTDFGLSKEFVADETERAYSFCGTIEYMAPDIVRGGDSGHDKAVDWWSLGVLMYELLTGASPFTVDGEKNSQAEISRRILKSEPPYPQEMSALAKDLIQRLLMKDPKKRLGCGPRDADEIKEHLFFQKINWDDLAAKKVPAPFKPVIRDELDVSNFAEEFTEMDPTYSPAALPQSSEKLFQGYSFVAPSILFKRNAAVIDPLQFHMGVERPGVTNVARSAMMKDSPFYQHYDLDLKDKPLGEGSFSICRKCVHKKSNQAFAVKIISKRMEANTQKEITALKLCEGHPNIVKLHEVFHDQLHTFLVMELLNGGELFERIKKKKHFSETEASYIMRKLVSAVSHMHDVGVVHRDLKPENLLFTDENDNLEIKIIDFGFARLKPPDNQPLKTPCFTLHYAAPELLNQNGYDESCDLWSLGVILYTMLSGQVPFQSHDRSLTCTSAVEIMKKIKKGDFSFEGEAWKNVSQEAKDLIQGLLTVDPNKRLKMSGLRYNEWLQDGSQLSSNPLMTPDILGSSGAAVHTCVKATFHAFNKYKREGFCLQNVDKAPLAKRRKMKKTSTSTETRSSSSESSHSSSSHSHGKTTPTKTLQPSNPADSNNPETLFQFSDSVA
Method: as §1, §2

Chain of VRK2(h) (Q86Y07 whole entry): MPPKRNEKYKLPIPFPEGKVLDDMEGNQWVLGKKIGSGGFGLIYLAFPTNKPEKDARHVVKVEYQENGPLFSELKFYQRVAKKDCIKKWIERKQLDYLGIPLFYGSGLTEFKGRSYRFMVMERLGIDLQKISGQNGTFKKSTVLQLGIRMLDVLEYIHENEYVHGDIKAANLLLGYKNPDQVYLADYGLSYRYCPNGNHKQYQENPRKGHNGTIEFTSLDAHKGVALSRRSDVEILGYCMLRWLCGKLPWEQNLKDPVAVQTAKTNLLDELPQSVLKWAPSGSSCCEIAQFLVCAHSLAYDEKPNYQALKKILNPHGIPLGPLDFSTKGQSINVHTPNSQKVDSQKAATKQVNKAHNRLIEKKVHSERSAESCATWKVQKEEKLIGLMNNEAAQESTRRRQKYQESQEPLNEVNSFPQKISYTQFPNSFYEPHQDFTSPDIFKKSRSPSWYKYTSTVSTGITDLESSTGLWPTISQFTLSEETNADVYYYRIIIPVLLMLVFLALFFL

| Sequence | VRK2(h) % activity (VRK2(h)) | FAK(h) % activity (FAK(h)) | Met(h) % activity (Met(h)) | F1t3(h) % activity (F1t3(h)) | BrSK1(h) % activity (BrSK1(h)) | CDK2/cyclinE(h) % activity (CDK2/cyclinE(h)) | Ron(h) % activity (Ron(h)) | PKCδ(h) % activity (PKCδ(h)) | EphB4(h) % activity (EphB4(h)) | p70S6K(h) % activity (p70S6K(h)) | MSK1(h) % activity (MSK1(h)) |
| --- | --- | --- | --- | --- | --- | --- | --- | --- | --- | --- | --- |
| KAFAKLAARLYRKALARQLGVAA [MMI-0400] | 185% | 96% | 62% | 18% | 76% | 83% | 79% | 90% | 28% | 33% | 28% |
| YARAAARQARAKALNRQLGVA (Mammalian) [MMI-0200] |  | 110% | 71% | 99% | 93% |  | 120% | 101% | 131% | 84% | 50% |
| FAKLAARLYRKALARQLGVAA [MMI-0300] | 161% |  | 65% | 84% | 67% | 94% | 93% | 101% | 44% | 35% | 32% |
| HRRIKAWLKKIKALARQLGVAA (Mammalian) [MMI-0500] | 169% | 94% | 27% | 17% | 72% | 19% | 46% | 61% | 38% | 3% | 8% |
